The target in test [1] is MlaD from Acinetobacter baumannii (Acinetobacter baumannii) (UniProt V5V921). As to the kind of experiment: cryo-EM structure.
The target of test [2] is MlaF from Acinetobacter baumannii (Acinetobacter baumannii). Description: cryo-EM structure.

As usually defined, the stoichiometry N is a count of units in the complex or per binding partner. As to “MlaD from Acinetobacter baumannii (from UniProt V5V921 1-226) (natural protein)”, the stoichiometry N in test [1] amounted to 6.

B1: MlaB from Acinetobacter baumannii (natural protein)
chain: MVQYLNQELVVSGKIDFENAEQQYQAGLAIIKKQTSFPLIVDLKQLEHGNTLALAVLVQWLRQTPQKSGLHFKNVPEKMLKIIQACHLQEDLHLV
B1: the percent of particles with MlaB bound to both MlaF copies in test [2] is 50%.

Values taken from article doi:10.1101/2020.05.30.125013.
